Experimental data published in US12599645B2, “Antibodies which bind to lysophosphatidic acid receptor 1 (LPAR1)” (DJS ANTIBODIES LTD, priority 2021, dated 2026).
Positions count from the first letter of the chain named. Names and notes keep the numbering of the source.

B1: Antibody 2: Murine germline sequence Antibody 1 was derived from; VH SEQ ID NO: 25, VL SEQ ID NO: 26 (antibody, V domains shown)
VH: QVQLQQSGAELARPGASVKLSCKASGYTFTSYGISWVKQRTGQGLEWIGEIYPRSGNTYYNEKFKGKATLTADKSSSTAYMELRSLTSEDSAVYFCARDYGSSRYAMDYWGQGTSVTVSS
VL: SIVMTQTPKFLPVSAGDRVTMTCKASQSVGNNVAWYQQKPGQSPKLLIYYASNRYTGVPDRFTGSGSGTDFTFTISSVQVEDLAVYFCQQHYSSPLTFGAGTKLELK
B2: Antibody 6: Antibody 5 with LCDR3 reversion N93S; VH SEQ ID NO: 27, VL SEQ ID NO: 32 (antibody, V domains shown)
VH: B1 VH with Y32S, Y52L, N57Y, Y59N, Y100F
VL: B1 VL with G30R, N31Y, Q90H
B3: Antibody 5: Antibody 3 with VL mutation Q90H; VH SEQ ID NO: 27, VL SEQ ID NO: 31 (antibody, V domains shown)
VH: B1 VH with Y32S, Y52L, N57Y, Y59N, Y100F
VL: B1 VL with G30R, N31Y, Q90H, S93N

Target: LPAR1 (Homo sapiens, UniProt Q92633)
Test: LPAR1 binding affinity during discovery and affinity maturation, method not stated
Parameters: expressed in transfected cells
Settings: stated in words

Chain of LPAR1 (Q92633 whole entry): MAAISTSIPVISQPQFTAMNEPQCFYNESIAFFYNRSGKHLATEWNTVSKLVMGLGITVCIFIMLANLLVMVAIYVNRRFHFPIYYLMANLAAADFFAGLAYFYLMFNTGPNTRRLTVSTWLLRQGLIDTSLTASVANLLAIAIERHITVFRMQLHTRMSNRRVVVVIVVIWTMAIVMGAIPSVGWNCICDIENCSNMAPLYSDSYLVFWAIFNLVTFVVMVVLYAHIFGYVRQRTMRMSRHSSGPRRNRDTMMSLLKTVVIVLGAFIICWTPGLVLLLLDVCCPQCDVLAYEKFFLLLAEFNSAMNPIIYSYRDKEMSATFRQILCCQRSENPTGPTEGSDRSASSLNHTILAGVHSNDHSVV

| binding affinity for LPAR1 | Molecule |
| --- | --- |
| extremely low binding affinity | B1 |
| large affinity gain | B2 |
| improved affinity | B3 |
